# Experimental data published in the supplement of paper PMC9170038.
# Tested on: K4 kissing-loop RNA reporter
# Assay: apparent KD of K4 kissing-loop reporter; higher = weaker reporter binding
# Details: Eterna round: R107; input ligand: theophylline 20 uM
# Protocol: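 RNA-MaP round R107: designed RNA switches with theophylline, tryptophan, arginine or FMN aptamers are transcribed on-chip within common flanks. They are titrated with a labelled K4 kissing-loop RNA reporter in RNA-MaP buffer (100 mM Tris pH 7.5, 80 mM KCl, 4 mM MgCl2), without ligand or with the indicated ligand. Median apparent KD per design.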
# 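Note: bound reporter read as fluorescence of individual clusters on recovered sequencing chips by microscopy, with normalized cluster intensities fitted with a binding model.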
row,Sequence,apparent KD of K4 kissing-loop reporter [nM]
1,AAAGCAUUGAGAAGGAGCGUGACGUGGAGUGAUGUUCCAUUGUAGUAAUAAUUACUACUAUCACAGGUAGGUCGCUCAUUGCUAA [JR_Nu_SSArginiB_Sub024],161
2,GGAUAGGACAGAGGAUAUCUCUGAGGCAAGAAAACUUGUCUCUAAAGAGAUGACUCAGUGAUGUUGAGAGAAGGCUGUCCUAUCG [FmnBX 9 - #SwitchBubble #StaticStem],155
3,AAACCAAUCAGAGGAUAUUCUUUAUUCGACAUAACCUUCUAUAAGGUGCAGUGAUGUUGCAAUAUAGGAGAAGGCUGAUUGACAA [Exclusion FMN B Gf 13],488
4,UGAUAGGACAGAAGGAGCGGAGGUCGUCAAAGACGACCAAUACGUUAAAUAGGAGUGAUGUUCCAGGUAGGUCGCUGUCCUAUCU [ArgBX 30 #SwitchBubble #StaticStem],129
5,GUCCCAGUGAUGUUGGUAGGCGGGCGGGAUACCAGCGGAGACUCACGCCCUUGGCAGCCCACAUAUCCCGCGUAGGGAUUAGCCC [Same State - Theophylline A (Freestyle 23)],339
6,AGUGCACUGUCAGGAUAUGUACAGUGAUGUUGUGUAUGUCAGCAAGUCAAAGACUUGCUCUUCUGUGCAGAAGGGACUGUGUACA [Omei KL FMN B Exc A v5],506
7,GAUAUAGUGAUGUUAUAUACUGAUAGACAACGAGGACCGGUACGGCCGCCACUCGAGAGGGUGAAAAUAAUGAUAAAAUAAUAAU [ExyTryA#1],298
8,UGUACCGAGUUAGGAUAUGUCGUCGAAAGACGAAAUGGAGUGAUGUUCCUUAAACUGCGAAAGCAGACAGAAGGGAUUUGGUACU [FmnBS 29 U11+U77],510
9,AAUGUGCAGGGAAGGAGCGUAGUCCAGUGCUGUUGGAGUUAGAUACCAGUGAUGUUGGUUAUACAGGUAGGUCGCCCUAAAGCGC [whbob_Ex_Arginine_B_2th161],161
10,UCUGUACCGGGAAGGAGCGUGAAUGAGAAUGGAUAUAGUGAUGUUAUGUAUACGAACGAAUCGCAGGUAGGUCGCCCGGAUCCCU [SSArgB.aA],474
11,AUUCACCUGUCGGCCGCCACUGCGUUAGCAGUAUCGGGCAGAAACUUCGCAGUGAUGUUGCGACUCAGGACCGGGACGUUGAGGA [theeternabot_exclusion_KL_Trp_B_29],454
12,AGGGAUGUUAAAGGAUAUAGAAAGUGAUGUUAGAAAGUGAGUGAUGUUGAUGUAAGUGAUGUUAUGUUAGAAGGUUAACAAAACG [ab],215
13,CCGAGCUACAGCGAUACCAGUGUGGAGUGAUGUUCCCUGGUCCGGGCUGUUGUUCCCUUGCGCCCUUGGCAGCGCAGAAGCAGCU [Exclusion Theophylline B GF 14],267
14,CCUAUCUCAUACGAUACCAGUGAAUAACCAGUGAUGUUGGAAUAACCAAGGAAUAUUUUACACCCUUGGCAGCGUAUGGGAUAGG [Ex Theophylline B K4 25],270
15,AUUAAUUUCAGAGGAUAUCGUUAUUUUAUUUAAUUUAUUCAUUUAUGCAGUGAUGUUGCUAUUAUUCGAGAAGGCUGAUUUAUAA [JR_ExcFMNB_Sub006],70.4
16,AAACUUGCAGUGAUGUUGCAAGUAGGUGAUACCAGCAUCGAAAGAUGCCCUUGGCAGCACCAUCUUGCAACAAAGGUGCUGCCAA [(H1)-(H2)-(T1)-(T2)-(H)'-(T)'_Design7],67.6
17,GGAAGACACCUGAGUGAUGUUCGGGUGUGCCGAGGACCGGUACGGCCGCCACUCGGGUGGUACAGUUACUGAUUGGACCGCUAUC [Arbirace],603
18,AUUAAUUUCAGAGGAUAUCGUUAUUUUUUAUAUUUUAUUCAUUUAUGCAGUGAUGUUGCUAUUAUUCGAGAAGGCUGAUUUAUAA [JR_ExcFMNB_Sub004],100
19,AAGGCCACGAGAAGGAGCGUGUUGUGGAGUGAUGUUCCACUGUAGACCUAAGGUCUACAGGCACAGGUAGGUCGCUCGUGGUCAA [Omei KL Arginine B SS A v6],131
20,UUUGUAUAGGGAAGGAGCGUGAAUGAUAAUGAAUAUAGUGAUGUUAUAUAUAAGAAAGAAUCACAGGUAGGUCGCCCGGAGGAGG [SSArgB.J],1350
21,AAAUUUAUUAUAUUUGAAUAAAUAUGUGAUACCAGACAUUUAUAAGUCCCUUGGCAGCACAAUGCAGUGAUGUUGCUUAUAAUAA [JR_SSTheophyA_Sub018],182
22,GGAUAGGAUAGAGGAUAUGGAUUAGGCAAGAAUAACUUGUCUUGUAAAUCCAUGAGGAGUGAUGUUCCAGAAGGCUGUCCUAUCG [MatMod 6 - Jieux - Exclusion - FMN B],117
23,UAGUAUAAUCUGUCGUUUACAAUAUUUAGUCAGGAUAUCGUAUAUUCGAGAAGGGACACUAUCUAGUGAUGUUAGAUAUUUCUUU [JR_ExcFMNA_Sub013],71.4
24,AGCAGUGAUGUUGCAUUUAUAAUGACCGAUACCAGUAUCGAUAGAUACCCUUGGCAGCGGAUUUCCGCAACGACUAGGAAACUAG [Ex Theophylline A K4 14],508
25,GUCAUCAGAUCGCAAGAUCUGAUAGCCGAUACCAGCGCGAAGGUGCGCCCUUGGCAGCGGCACCGAGUGAUGUUCGGUCAGACGG [#2 Same State - Theophylline A Attempt #4 (HarryS)],440
26,UUUCGUUGAAGUGAUACCAGACUUGAAAGUGAUGUUUUCCAAUAAUUUAAAUUUUUAGCUGUCCCUUGGCAGCACAGUUUAUUUA [JR_Nu_ExcTheophyB_Sub025],401
